The numbers were not newly measured in paper PMC2790341, which cites them from elsewhere.

Targets include VEGFR1 (Homo sapiens) (UniProt P17948); VEGFR2 (Homo sapiens) (UniProt P35968); NRP1 (Homo sapiens) (UniProt O14786).
Chain of UniProt P17948 (P17948 27-1338): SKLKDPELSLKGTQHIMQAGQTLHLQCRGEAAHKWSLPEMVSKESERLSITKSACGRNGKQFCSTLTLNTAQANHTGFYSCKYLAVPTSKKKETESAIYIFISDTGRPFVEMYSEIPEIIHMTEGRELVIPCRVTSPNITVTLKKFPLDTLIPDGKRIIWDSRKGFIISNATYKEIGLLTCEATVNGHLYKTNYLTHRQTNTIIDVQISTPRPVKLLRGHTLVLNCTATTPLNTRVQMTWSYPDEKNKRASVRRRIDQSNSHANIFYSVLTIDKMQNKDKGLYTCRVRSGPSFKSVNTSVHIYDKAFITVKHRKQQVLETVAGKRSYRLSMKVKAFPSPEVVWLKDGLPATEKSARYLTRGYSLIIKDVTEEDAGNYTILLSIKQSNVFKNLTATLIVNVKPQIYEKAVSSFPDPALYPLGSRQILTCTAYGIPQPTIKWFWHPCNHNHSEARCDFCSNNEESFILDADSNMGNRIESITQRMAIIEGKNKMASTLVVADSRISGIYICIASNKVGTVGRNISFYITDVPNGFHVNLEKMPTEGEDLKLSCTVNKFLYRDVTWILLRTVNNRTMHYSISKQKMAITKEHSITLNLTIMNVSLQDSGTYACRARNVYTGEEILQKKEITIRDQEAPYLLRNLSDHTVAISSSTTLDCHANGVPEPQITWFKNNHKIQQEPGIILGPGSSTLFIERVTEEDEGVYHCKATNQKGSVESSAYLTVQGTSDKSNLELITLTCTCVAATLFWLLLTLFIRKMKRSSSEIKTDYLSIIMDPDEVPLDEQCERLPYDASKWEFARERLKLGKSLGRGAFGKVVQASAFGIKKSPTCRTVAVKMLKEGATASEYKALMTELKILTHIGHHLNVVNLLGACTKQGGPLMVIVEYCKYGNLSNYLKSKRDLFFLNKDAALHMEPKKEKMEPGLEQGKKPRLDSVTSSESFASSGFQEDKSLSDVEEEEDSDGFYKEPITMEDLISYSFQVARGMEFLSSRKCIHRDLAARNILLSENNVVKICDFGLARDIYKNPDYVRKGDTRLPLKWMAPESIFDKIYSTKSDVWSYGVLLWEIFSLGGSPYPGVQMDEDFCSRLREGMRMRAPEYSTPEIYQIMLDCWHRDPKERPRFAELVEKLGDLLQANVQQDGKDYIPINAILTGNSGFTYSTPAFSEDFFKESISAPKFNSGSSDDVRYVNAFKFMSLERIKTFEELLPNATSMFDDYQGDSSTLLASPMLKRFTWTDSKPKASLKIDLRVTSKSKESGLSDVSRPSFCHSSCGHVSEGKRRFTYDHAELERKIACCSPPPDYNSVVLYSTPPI
Chain of UniProt O14786 (O14786 22-923): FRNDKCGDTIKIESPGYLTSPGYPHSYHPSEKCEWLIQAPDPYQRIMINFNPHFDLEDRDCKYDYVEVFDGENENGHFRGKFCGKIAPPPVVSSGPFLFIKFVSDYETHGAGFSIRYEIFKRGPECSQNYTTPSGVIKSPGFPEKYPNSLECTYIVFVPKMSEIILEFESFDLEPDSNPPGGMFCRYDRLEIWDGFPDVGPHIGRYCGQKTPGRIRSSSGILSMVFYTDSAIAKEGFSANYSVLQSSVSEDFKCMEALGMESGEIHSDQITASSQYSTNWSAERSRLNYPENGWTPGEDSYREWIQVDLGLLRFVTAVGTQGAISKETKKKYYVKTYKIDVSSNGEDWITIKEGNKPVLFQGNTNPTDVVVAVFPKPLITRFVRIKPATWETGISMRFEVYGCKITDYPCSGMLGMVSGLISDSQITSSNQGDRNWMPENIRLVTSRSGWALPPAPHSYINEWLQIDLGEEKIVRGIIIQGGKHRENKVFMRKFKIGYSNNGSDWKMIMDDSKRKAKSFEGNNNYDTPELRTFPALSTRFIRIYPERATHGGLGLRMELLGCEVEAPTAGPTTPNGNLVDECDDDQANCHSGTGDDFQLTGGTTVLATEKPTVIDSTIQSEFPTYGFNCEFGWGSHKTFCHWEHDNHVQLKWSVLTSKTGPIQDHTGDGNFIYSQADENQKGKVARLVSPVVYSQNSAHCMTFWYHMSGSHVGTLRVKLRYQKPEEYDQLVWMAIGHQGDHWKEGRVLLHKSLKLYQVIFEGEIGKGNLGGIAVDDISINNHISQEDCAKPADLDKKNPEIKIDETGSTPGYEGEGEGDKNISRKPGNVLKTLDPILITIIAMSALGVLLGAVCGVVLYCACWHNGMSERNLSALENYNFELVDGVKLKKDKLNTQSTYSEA
Chain of UniProt P35968 (P35968 20-1356): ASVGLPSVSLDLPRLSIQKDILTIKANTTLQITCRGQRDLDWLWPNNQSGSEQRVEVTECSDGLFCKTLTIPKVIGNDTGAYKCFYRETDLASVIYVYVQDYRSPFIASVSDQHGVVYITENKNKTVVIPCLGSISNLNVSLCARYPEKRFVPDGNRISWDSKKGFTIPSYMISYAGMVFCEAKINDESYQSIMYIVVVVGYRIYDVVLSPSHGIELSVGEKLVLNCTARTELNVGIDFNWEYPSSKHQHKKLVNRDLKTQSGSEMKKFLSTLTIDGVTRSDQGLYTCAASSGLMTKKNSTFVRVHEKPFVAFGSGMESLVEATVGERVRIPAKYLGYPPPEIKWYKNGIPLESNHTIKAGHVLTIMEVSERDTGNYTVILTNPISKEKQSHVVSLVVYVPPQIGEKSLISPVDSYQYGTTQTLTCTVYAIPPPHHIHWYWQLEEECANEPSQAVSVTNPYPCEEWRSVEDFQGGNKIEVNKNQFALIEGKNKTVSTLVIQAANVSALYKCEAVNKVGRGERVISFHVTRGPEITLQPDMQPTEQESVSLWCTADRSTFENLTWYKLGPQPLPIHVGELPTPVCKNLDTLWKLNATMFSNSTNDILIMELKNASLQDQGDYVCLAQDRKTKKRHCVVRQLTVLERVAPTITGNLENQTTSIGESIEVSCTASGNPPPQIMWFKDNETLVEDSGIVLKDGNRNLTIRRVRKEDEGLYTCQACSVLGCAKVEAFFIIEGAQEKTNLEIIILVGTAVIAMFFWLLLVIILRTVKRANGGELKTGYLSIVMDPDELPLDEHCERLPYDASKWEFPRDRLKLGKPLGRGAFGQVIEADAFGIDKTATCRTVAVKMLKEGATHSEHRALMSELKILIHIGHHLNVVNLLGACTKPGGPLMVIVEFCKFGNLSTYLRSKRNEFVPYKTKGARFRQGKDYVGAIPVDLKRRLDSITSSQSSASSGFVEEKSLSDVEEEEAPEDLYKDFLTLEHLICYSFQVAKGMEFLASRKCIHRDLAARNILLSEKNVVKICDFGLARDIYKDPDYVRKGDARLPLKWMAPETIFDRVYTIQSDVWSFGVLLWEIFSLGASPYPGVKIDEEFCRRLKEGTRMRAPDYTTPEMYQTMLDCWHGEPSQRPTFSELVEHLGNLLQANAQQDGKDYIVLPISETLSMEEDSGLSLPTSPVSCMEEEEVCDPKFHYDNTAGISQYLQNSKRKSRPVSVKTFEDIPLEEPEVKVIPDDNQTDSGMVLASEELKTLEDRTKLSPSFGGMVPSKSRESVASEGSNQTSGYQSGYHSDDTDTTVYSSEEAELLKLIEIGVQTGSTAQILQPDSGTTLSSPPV

VEGF (from UniProt P15692): the values for the Kd in the series with VEGFR1 (Homo sapiens) and with VEGFR2 (Homo sapiens) were 0.033 nM and 0.1 nM, respectively. Consider VEGF165 (from UniProt P15692), for which the Kd with NRP1 (Homo sapiens) was 0.312 nM.

A word on the Kd: it is a measure of binding affinity in units of concentration.
